Among the data in paper PMC6794829 are binding values, retold here.

Data set [1] relates to T1, HcdR2 (LuxR family regulator) (Streptomyces mobaraensis US-43), ORF:dfa86b54.
T1 sequence: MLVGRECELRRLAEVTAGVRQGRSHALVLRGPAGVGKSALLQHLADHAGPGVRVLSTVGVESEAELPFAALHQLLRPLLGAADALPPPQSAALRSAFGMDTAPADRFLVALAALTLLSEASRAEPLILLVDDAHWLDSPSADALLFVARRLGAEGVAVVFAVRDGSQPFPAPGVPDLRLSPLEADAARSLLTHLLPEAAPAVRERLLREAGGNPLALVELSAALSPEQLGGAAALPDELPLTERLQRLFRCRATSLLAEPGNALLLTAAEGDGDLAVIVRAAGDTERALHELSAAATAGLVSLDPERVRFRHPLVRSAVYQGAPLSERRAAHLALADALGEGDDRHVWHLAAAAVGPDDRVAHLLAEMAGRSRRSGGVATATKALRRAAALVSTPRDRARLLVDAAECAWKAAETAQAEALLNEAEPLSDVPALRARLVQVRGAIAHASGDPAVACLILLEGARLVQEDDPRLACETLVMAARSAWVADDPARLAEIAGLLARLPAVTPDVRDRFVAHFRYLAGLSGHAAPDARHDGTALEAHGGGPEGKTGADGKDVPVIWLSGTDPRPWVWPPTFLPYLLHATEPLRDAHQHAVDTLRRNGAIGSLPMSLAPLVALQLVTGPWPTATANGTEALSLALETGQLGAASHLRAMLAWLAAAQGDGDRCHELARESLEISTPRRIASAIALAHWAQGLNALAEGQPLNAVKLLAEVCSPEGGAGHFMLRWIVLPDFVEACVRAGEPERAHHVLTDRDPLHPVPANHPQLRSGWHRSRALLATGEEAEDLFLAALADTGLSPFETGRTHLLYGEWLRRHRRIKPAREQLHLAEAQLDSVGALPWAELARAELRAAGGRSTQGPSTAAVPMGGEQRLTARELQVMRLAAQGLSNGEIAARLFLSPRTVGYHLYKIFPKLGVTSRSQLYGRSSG
Put plainly: competition. Particulars: EMSA: 10 mM Tris-HCl, 50 mM KCl, 1 mM DTT, pH 7.5 (1x of 10x buffer), 20 fmol probe in 20 uL, 25-2000 nM protein, room temperature 20 min; native 5% gel, 0.5x …. A general note: In EMSA bound probe runs differently from free probe, usually more slowly.

Data set [2] shares this test system. Briefly: EMSA. Particulars: EMSA: 10 mM Tris-HCl, 50 mM KCl, 1 mM DTT, pH 7.5 (1x of 10x buffer), 20 fmol probe in 20 uL, 25-2000 nM protein, room temperature 20 min; native 5% gel, 0.5x ….

Take “CTCTTCGCGGGGAGAGAGCGGCCGGTCGCGGCACGGCGAGCCTATGAAGATCGACACGGCCGCCCCACCCCCTACGACCCCTACGAACCCCTGTCCCCTACCGGCGCGGCAGGGGACAGGGGTTCGTAGGGGTCGTAGGGGGTGGGGGGCCGCCGGACGATCTTCATAGGCTCGCTCTCGATCGGAGACGGCCCTCGCAGCCGTGTCCCCGGCAACCCGGACTTCTCGCGGACCGGCCGCCCCCAGGCCGACCCCCCTACTCGATCCACGACGAGAAAGAGGTT (double strand) [V2 Bp]”: the binding entry in data set [1] is listed as “binds”.

In the case of “CGCGCCCAGCGGCCAGGTGGGCCGTTGCGCCAGGCGGGCGGCCGCCACCCCCGCAGTGCCAGGGGCAGTCCGCCGCACAGCTCGGCCAGCCGTCGCGCAGC (double strand) [hcdR1p]”, the binding result in data set [1] is “no binding”.

As for “GATTCAGCCAAGTGACCCCGCAAGAAGCCTCGTTCGCGAACGGTCCCTGAGCCCGCGCCCGCGCCGCACCCGCGGACCATCCGCCGAACGGCCGGGCCGCCCGTACGGTCTGGAGAGCGCCACGGCGTGCGGGTCCCGGTGGTGGGCCACGGCGCGGCCGACCCGTCAGGTGTTTCCGGGAGGCCGCGCCGCGGAGGGCACGCACGTCCGTGGCGGGACCGGGGGACGGGAGACGGCGTGGCGCCGCGTCATGGTCGTCCGGCGCCTCGATGCCGTCACGGCGCAGGGCGGGCCCGCCGG (double strand) [hcdT-1p]”, in data set [2], the binding result is on record as “no binding”.
